Experimental data published in patent US20240262900A1, “MATERIALS AND METHODS FOR DIFFERENTIATING CREB REGULATEDTRANSCRIPTION COACTIVATOR 3” (JANSSEN BIOTECH, INC., priority 2021, published 2024).
Changes are numbered by the printed parent chain.

B1: mAb #157: anti-phospho-Serine370 CRTC3 monoclonal antibody from rabbit hybridoma; VH SEQ ID NO: 31, VL SEQ ID NO: 32 (antibody, V domains shown)
VH: QEQLKESGGGLFKPMDILTVTCTVSGISLSSYGLSWVRQAPGNGLEWIGAIGASGSAYYASWAKSRSTITRNTNLNTVTLKMTSLTAADTATYFCKRNYIWGPGTLVTVSS
VL: AQVLTQTASPVSAAVGGTVTINCQASQSVYSDNRLSWYQQKPGQPPKLLIYEASKLASGVPPRFSGSGSGTQFTLAISGVQCDDAATYYCQGSYDCNSADCSAFGGGTEVVVK
B2: mAb #170: anti-phospho-Serine370 CRTC3 monoclonal antibody from rabbit hybridoma; VH SEQ ID NO: 65, VL SEQ ID NO: 66 (antibody, V domains shown)
VH: QSMKESEGGLFKPTDTLTLTCTVSGFSLSRYGVIWVRQAPGKGLEFIGYISSTGSTYYASWAKSRSTITRNTNENTVTLKVTSLTAADTATYFCAQSGLGYDGGRNIWGPGTLVTVSS
VL: AAVLTQTPSPVSAAVGGTVSISCQSSKSVANSNWLSWYQQKPGQPPKLLIYSASTLASGAPSRFKGSGSGTQFTLTISDVQCDDAATYYCAGGYSDISDIFGFGGGTEVVVK
B3: mAb #21: anti-phospho-Serine329 CRTC3 monoclonal antibody from rabbit hybridoma; VH SEQ ID NO: 99, VL SEQ ID NO: 100 (antibody, V domains shown)
VH: QSVEESGGRLVTPGTPLTLTCTVSGIDLSSNTVSWVRQAPGKGLEWIGVSGYSGRPYYASWAKGRFTISKTSSTVHLKITSPTAEDTATYFCARGSVNVNIWGPGTLVTVSS
VL: AQVLTQTASPVSAAVGGTVTINCQSSQSVYSSNRLSWFQQKPGQPPKLLMYYTSTLASGVPSRFKGSGSGTEFTLTISGVQCDDAATYYCLGGYDCDIADCSAFGGGTEVVVK
B4: mAb #82: anti-phospho-Serine329 CRTC3 monoclonal antibody from rabbit hybridoma; VH SEQ ID NO: 133, VL SEQ ID NO: 134 (antibody, V domains shown)
VH: B3 VH with S50I, R55N, P56G, S73T, H76D, I79M, V99C
VL: B3 VL with Y30I, S32N, F38L, M50I, T53A, E72Q, D97N, I98S, A103T

Tests used:
[1] = target: T1, CRTC3 phosphorylated at serine 370 (pSer370) (Homo sapiens, UniProt Q6UUV7); test: Immunoblotting of in vitro phosphorylated recombinant CRTC3 wild type vs S370A mutant protein; format: binding; conditions: for specific recognition of human CRTC3 by phosphorylation state (conclusion of the experiments): serine 370
T1 construct: All recombinant CRTC3 full-length protein versions are preceded with; FLAG (N); AVI (N); made in house; host or cells: Baculovirus expression system
T1 sequence (Q6UUV7 1-619): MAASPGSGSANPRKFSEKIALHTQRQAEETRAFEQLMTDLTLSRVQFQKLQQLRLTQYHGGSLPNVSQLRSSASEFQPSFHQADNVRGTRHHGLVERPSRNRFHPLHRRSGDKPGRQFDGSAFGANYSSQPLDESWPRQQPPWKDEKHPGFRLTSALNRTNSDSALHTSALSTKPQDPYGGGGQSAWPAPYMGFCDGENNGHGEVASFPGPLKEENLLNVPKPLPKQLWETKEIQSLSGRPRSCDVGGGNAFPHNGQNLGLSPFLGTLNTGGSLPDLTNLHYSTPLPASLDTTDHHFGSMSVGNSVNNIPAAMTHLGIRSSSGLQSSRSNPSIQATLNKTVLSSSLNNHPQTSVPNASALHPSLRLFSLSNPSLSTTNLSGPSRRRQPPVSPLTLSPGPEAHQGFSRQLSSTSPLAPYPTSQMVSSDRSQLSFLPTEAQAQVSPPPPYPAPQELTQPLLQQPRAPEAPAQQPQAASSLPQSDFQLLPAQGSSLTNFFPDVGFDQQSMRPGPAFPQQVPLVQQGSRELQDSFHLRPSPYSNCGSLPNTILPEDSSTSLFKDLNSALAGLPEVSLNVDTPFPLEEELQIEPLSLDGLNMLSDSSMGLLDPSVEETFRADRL
Source text: (§1) To facilitate the identification of hybridomas that produced antibodies specific for the phosphorylated immunizing peptides, CRTC3 proteins were designed that harbored serine to alanine mutations at either position 329 (S329A mutant) or 370 (S370A mutant; Table 3) rendering them unable to carry phosphate groups at positions 329 and 370, respectively. In addition, CRTC3 protein harboring the unmutated wild type (WT) amino acid sequence was produced as a control reagent (Table 3). Briefly, proteins were overexpressed in a Baculovirus expression system and purified using M2 anti-flag magnetic beads (Millipore-Sigma). The wild type protein was additionally subjected to subsequent size exclusion chromatography. All purified proteins were phosphorylated in vitro in the presence of internally produced SIK2 variant (6His-MBP-TEV-SIK2-PKD-UBA; SEQ ID NO: 187) and 1 mM ATP (Promega) in a buffer containing 50 mM Tris pH 7.5, 100 mM NaCl, 10 mM MgCl2 (all from Quality Biologicals), 0.1 mM EDTA (Corning), 1 mM DTT (MP Biomedicals). Phosphorylation reactions were quenched by the addition of excess EDTA.
(§2) Immunoblotting was done using the NuPAGE electrophoresis and western Blotting system (Invitrogen). Briefly, 0.1-0.15 microgram of WT or S329A mutant or S370A mutant recombinant protein along with WesternSure® Pre-stained Chemiluminescent Protein Ladder (Li-Cor) were loaded onto NuPAGE® Bis-Tris gels and separated by electrophoresis. Subsequently, proteins were transferred onto nitrocellulose membranes (iBlot® 2 Transfer Stacks, nitrocellulose, mini; ThermoFisher) using an iBlot 2® Gel Transfer Device (ThermoFisher). Specific bands on the nitrocellulose membranes were detected using the automatic Western blot-processing iBind™ Flex Western System (ThermoFisher) as per the manufacturer's recommendations. As primary antibodies served either undiluted hybridoma supernatant or recombinantly expressed mAbs at 0.25 microgram/ml, whereas Peroxidase AffiniPure Donkey Anti-Rabbit IgG (H+L) (Jackson ImmunoResearch) was used as secondary antibody at a 1:4000 dilution. The blots were developed using Amersham ECL Western Blotting Detection Reagent and an ImageQuant LAS4000 image scanner (both GE Healthcare Life Sciences).

[2] = tested on: phosphorylated CRTC3 in THP1 lysates; test: Immunoblotting of lysates of macrophage-differentiated, LPS-stimulated THP1 cells, untreated or incubated with dasatinib; format: binding, human; conditions: recombinant mAb
Source text: as §2
Cells were then either left untreated or incubated with dasatinib at 10 micromolar for 1.5 hours before cell harvest. […] Cells were washed in cold PBS (Gibco) and lysed on ice in 50 mM Tris HCl (Alfa Aesar) at pH 7.4, 1 mM DTT, 1% (vol/vol) Triton X-100 (both ThermoFisher), 1 mM EDTA (Gibco), 1 mM EGTA (Alfa Aesar) supplemented with protease inhibitor (cOmplete™ ULTRA Tablets; Roche) and phosphatase inhibitor (Phosstop, Roche) as per the manufacturer's recommendations for 1 hour. Extracted proteins were harvested by collecting the supernatant after centrifugation of the lysate for 20 minutes. Protein concentrations were determined using the Pierce Detergent-compatible Bradford Assay kit (Pierce). Lysate proteins were separated by gel electrophoresis and detected by immunoblotting as described above. […] That the detected signals indeed corresponded to CRTC3 was verified in independent experiments, in which similarly treated THP1 lysates were developed using an antibody recognizing CRTC3 independent of its phosphorylation status (EPR3440; purified; rabbit; Abcam; data not shown).

[3] = target: T2, CRTC3 phosphorylated at serine 329 (pSer329) (Homo sapiens, UniProt Q6UUV7); test: Immunoblotting of in vitro phosphorylated recombinant CRTC3 wild type vs S329A mutant protein; format: binding; conditions: for specific detection of human CRTC3 by phosphorylation state (conclusion of the experiments): serine 329
T2 construct: All recombinant CRTC3 full-length protein versions are preceded with; FLAG (N); AVI (N); made in house; host or cells: Baculovirus expression system
T2 sequence (Q6UUV7 1-619): T1 sequence (Q6UUV7 1-619)
Source text: as §1, §2

[4] = recombinant mAb at 0.25 microgram/ml, FIG. 2D
[5] = undiluted hybridoma supernatant as primary antibody, FIG. 2B
[6] = THP1 lysates not incubated with a SIK inhibitor (lane 3)
[7] = THP1 lysates treated for 1.5 hours with dasatinib at 10 micromolar (lane 4)
[8] = recombinantly expressed mAb at 0.25 microgram/ml, FIG. 2C
[9] = undiluted hybridoma tissue culture supernatant as primary antibody, FIG. 2A

Molecule | signal with recombinant CRTC3 WT vs S370A mutant by western blot [1, 4] | specific recognition of human CRTC3 by phosphorylation state (conclusion of the experiments) [1] | signal with recombinant CRTC3 WT vs S370A mutant by western blot [1, 5] | immunoblot signal at the expected molecular size in THP1 lysates [2, 6] | immunoblot signal at the expected molecular size in THP1 lysates [2, 7] | recognition of recombinant CRTC3 WT vs S329A variant by western blot [3, 8] | specific detection of human CRTC3 by phosphorylation state (conclusion of the experiments) [3] | recognition of recombinant CRTC3 WT vs S329A variant by western blot [3, 9]
B1 | specific signal only with WT | specifically recognized human CRTC3 only when phosphorylated at serine 370 | specific signal only with WT | strong signal | strongly diminished |  |  | 
B2 | specific signal only with WT | specifically recognized human CRTC3 only when phosphorylated at serine 370 | specific signal only with WT | strong signal | strongly diminished |  |  | 
B3 |  |  |  | strong signal | strongly diminished | specifically recognized only recombinant CRTC3 protein harboring the WT sequence | specifically detected human CRTC3 only when phosphorylated at serine 329 | specifically recognized only recombinant CRTC3 protein harboring the WT sequence
B4 |  |  |  | strong signal | strongly diminished | specifically recognized only recombinant CRTC3 protein harboring the WT sequence | specifically detected human CRTC3 only when phosphorylated at serine 329 | specifically recognized only recombinant CRTC3 protein harboring the WT sequence
